The text below walks through data of patent publication US6645733B1, “Fluorescent intensity method for assaying binding between proteins or peptides” (Ingeneus Corporation, priority 1999, dated 2003).

This test has as its target T1, human AT1 receptor (Homo sapiens, UniProt P30556).
T1 construct: purchased NEN Life Science Products Inc., Boston, Mass; host or cells: Chinese hamster ovary (CHO) cells, purified membrane preparation
T1 sequence (P30556 1-359): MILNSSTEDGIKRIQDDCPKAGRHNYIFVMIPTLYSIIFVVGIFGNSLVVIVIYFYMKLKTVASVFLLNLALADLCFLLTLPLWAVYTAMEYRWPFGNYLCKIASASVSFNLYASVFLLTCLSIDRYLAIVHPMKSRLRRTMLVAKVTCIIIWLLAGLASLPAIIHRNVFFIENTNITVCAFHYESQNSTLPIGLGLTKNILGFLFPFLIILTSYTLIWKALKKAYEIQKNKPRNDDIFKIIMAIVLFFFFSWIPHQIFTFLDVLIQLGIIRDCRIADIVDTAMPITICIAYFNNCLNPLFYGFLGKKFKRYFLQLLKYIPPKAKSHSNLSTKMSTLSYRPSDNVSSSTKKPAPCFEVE
Put plainly: Competition binding experiment: displacement of wildtype Flu-AII from AT1 receptor by unlabeled ligand. Conditions: all twelve concentrations 1 nM to 300 μM, 10 nM Flu-AII, 0.02 units AT1 receptor (data not shown).

No end group written: not given here.

Regarding MLGFFQQPKPR [substance P], the “displacement of Flu-AII binding to AT1 receptor” value is reported as “unable to displace”.
